Reference: PMC3618186, “Dynein and Dynactin Leverage Their Bivalent Character to Form a High-Affinity Interaction” (PLoS ONE, 2013)

B1: dynactin p150^Glued coiled-coil 1B (CC1B), residues 381–530 (domain or fragment, R. norvegicus, UniProt P28023 381-530, looked up)
chain: SSEKQEHVKLQKLMEKKNQELEVVRQQRERLQEELSQAESTIDELKEQVDAALGAEEMVEMLTDRNLNLEEKVRELRETVGDLEAMNEMNDELQENARETELELREQLDMAGARVREAQKRVEAAQETVADYQQTIKKYRQLTAHLQDVN
notes: also called p150^Glued CC1B; source: E. coli BL21 Star (DE3), purified (Ni-NTA, Ulp1 cleavage, HiTrap Q XL, Superdex 75); not shown: His6, N-terminal, cleaved; SMT3 (S. cerevisiae SUMO), N-terminal, cleaved

What was measured:
[1] = biological target: the molecule itself; experiment: not stated; unpublished observation
[2] = biological target: B1; experiment: native gel or EMSA; native PAGE; purified proteins incubated at 25°C for five minutes in equimolar or two fold molar excess; 12% gels with a stacking gel at pH 7.4 or 8–25% gradient gels; settings: both partners purified
[3] = biological target: the molecule itself; experiment: AUC; sedimentation equilibrium of the p150Glued fragments alone, 4°C, 1x PBS, 1 mM TCEP; monomer-dimer model (dimer to monomers)

Row | binding result [2] | Binder | stoichiometry N [1] | Kd [3] [nM] | stoichiometry N [3]
1 | – | p150^Glued CC2 (residues 928–1049) (domain or fragment, rat (numbering stated as rat, p-0002), UniProt P28023 928-1049, looked up, Unpublished observation of the authors) AALRAEITDAEGLGLKLEDRETVIKELKKSLKIKGEELSEANVRLSLLEKKLDSAAKDADERIEKVQTRLEETQTLLRKKEKEFEETMDALQADIDQLEAEKTELKQRLNSQSKRTIEGLRG | 2 | – | –
2 | binds | S. cerevisiae dynein intermediate chain Pac11, residues 1–86, wild type (domain or fragment, UniProt P40960 1-86, looked up, S. cerevisiae dynein intermediate chain Pac11, residues 1-86; Cloned in pGEX 6P-3; also called wt-Pac11^1–86; Pac11 1–86; source: E. coli BL21 Star (DE3), purified (Glutathione Sepharose 4B, precision protease, Superdex 75)) MERLKQLEEKRRQLKELRERRKQASLFPGSETMGHHPTEVHAKATMVSVSVQTDMEEGSKIQEPQSAYLRRKEVITYDKGIQTDQI | – | – | –
3 | – | B1 | – | < 60 | 2
4 | – | dynactin p150^Glued coiled-coil 1A (CC1A), residues 204–348 (domain or fragment, R. norvegicus, UniProt P28023 204-348, looked up, R. norvegicus dynactin p150Glued, residues 204-348; Dimer at 4°C by sedimentation equilibrium; source: E. coli BL21 Star (DE3), purified (Ni-NTA, Ulp1 cleavage, HiTrap Q XL, Superdex 75); not shown: His6, N-terminal, cleaved; SMT3 (S. cerevisiae SUMO), N-terminal, cleaved) PGAAPPLPSPSKEEEGLRDQVRDLEEKLETLRLKRSEDKAKLKELEKHKIQLEQVQEWKSKMQEQQADLQRRLKEAKEAKEALEAKERYMEEMADTADAIEMATLDKEMAEERAESLQQEVEALKERVDELTTDLEILKAEIEEK | – | < 40 | 2
